Measured values reported in patent US20090258363, “Targeted integration and expression of exogenous nucleic acid sequences” (Sangamo BioSciences, Inc., published 2009).

Columns and labels:
Assay in all cases: ZFP domain; assay not described
Details in all cases: tags: FokI C-terminal, 4-aa linker
sca-36c ZFP-FokI = sca-36c ZFP-FokI (synthetic)
sca-r29b ZFP-FokI = sca-r29b ZFP-FokI (synthetic)
sca-36b ZFP-FokI = sca-36b ZFP-FokI (synthetic)
sca-36a ZFP-FokI = sca-36a ZFP-FokI (synthetic)
Sequence of sca-36a ZFP-FokI (synthetic) (chain, as listed by the source): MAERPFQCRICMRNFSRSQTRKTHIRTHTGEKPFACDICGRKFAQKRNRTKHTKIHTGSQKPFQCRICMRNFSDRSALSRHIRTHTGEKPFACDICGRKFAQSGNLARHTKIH

Sequence of sca-36c ZFP-FokI (synthetic) (chain, as listed by the source): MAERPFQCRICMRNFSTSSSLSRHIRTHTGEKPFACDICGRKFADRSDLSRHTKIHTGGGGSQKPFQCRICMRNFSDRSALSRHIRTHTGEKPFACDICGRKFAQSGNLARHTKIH
Sequence of sca-r29b ZFP-FokI (synthetic) (chain, as listed by the source): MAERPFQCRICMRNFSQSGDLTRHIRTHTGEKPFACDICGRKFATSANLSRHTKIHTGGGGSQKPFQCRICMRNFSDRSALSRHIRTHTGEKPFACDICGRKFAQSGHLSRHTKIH
Sequence of sca-36b ZFP-FokI (synthetic) (chain, as listed by the source): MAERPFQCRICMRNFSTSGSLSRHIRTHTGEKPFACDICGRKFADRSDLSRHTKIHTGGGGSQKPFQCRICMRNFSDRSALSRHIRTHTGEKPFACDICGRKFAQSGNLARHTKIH

B1: sca-36c site (dsDNA)
DNA 1: GAAGTCTGCCGTT
DNA 2: AACGGCAGACTTC
binding result (sca-36c ZFP-FokI): binds

B2: sca-r29b site (dsDNA)
DNA 1: ACGTAGACTGAGG
DNA 2: CCTCAGTCTACGT
binding result (sca-r29b ZFP-FokI): binds

B3: sca-36b site (dsDNA)
DNA 1: GAAGTCTGCCGTT
DNA 2: AACGGCAGACTTC
binding result (sca-36b ZFP-FokI): binds

B4: sca-36a site (dsDNA)
DNA 1: GAAGTCTGCCGT
DNA 2: ACGGCAGACTTC
binding result (sca-36a ZFP-FokI): binds
